This note sets out measurements from patent US11733246B2, “Compositions, imaging, and therapeutic methods targeting folate receptor 1 (FOLR1)” (Indi Molecular, Inc., priority 2020, dated 2023).

pEC50: −log10 of the molar value. Where two headings read alike, the source gives them in different places. Numbered stars: 1 amine (or outer) side, 2 acyl side, 3 side chain; on linkers, the order of the positions; unused ones are H or OH. Bridge positions count the residues as written; N and C are the ends. Square brackets hold non-standard residues; d marks the D form. Triazole bridges read from a SMILES are 1,4-linked. Peptide text beside a SMILES is read from it. * marks the point of attachment. DOTA = O=C(O)CN1CCN(CC(=O)O)CCN(CC(=O)*)CCN(CC(=O)O)CC1; Pteroyl = Nc1nc2ncc(CNc3ccc(C(=O)*)cc3)nc2c(=O)[nH]1; Biotin = O=C1N[C@H]2[C@H](CS[C@H]2CCCCC(=O)*)N1; Butanoyl(4-(4-I-phenyl)) = O=C(CCCc1ccc(I)cc1)*; Butanoyl(4-(4-MePh)) = Cc1ccc(CCCC(=O)*)cc1; Lys(N3) = [N-]=[N+]=NCCCC[C@H](N)C(=O)O; γGlu = O=C(O)[C@H](CCC(=O)[*:2])N[*:1]; AEEEA = NCCOCCOCCOCC(=O)O; Pra = C#CC[C@H](N)C(=O)O

Series [1] in a line: Plasma protein binding (equilibrium dialysis), human. Type of series: in vitro ADME. In short, it runs like this: (§1)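 Equilibrium dialysis across 12-14 kDa cellulose membranes; test articles at 2 μM in mouse or human plasma adjusted to pH 7.0-8.0, in triplicate. Dialysed 4 hours at 37° C. with slow shaking; both sides quantified by LC-MS/MS to give fraction bound.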
The next series relates to human plasma proteins. The series is described as above. It counts as in vitro ADME. The following applies: human, plasma. Summed up: as §1
A short description of series [2]: Plasma protein binding (equilibrium dialysis), mouse. Type of series: in vitro ADME, CD-1 mouse. Summed up:
as §1

In the next series the test system is mouse plasma proteins. The series is described as above. It counts as in vitro ADME, CD-1 mouse. The following applies: mouse, plasma. In short, it runs like this: as §1
For a further series, the target named is human recombinant NEP (Homo sapiens, UniProt P08473). Type of series: biochemical. In short, it runs like this: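 Peptide bearing GFK linker (10 μM) incubated with recombinant human NEP (10, 1, 0.1, 0.01 nM or none) at 37° C. for 1 h. Cleavage tracked by MALDI-MS, cleaved adduct identified by mass, and by HPLC as parent-peak depletion with new-peak appearance; non-cleavable PEG3 linker assayed for specificity.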

A further series concerns the target T1, FOLR1 (Homo sapiens, UniProt P15328).
T1 construct: His; purchased SinoBiological 11241-H08H
The series can be described thus: ELISA assay of FOLR1 binding. The source says: FIG. 5 is a diagram of ELISA assay of FOLR1 binding of heterobiligands.
Nonclinical studies were first conducted with Folate-hshta-PEG10-PEG10-K(Biotin), where Folate-hshta is the targeting heterobiligand, PEG10 is a deca(ethylene glycol) linker, and K(Biotin) is the detection label.

For series [3], the target named is mouse recombinant FOLR1 (rMuFOLR1) (Mus musculus, UniProt P35846). The series can be described thus: ELISA binding to mouse recombinant FOLR1. The text has this: Further evaluation of the folate-hshta (SEQ ID NO:6) Nterm heterobiligand depended on cross reactivity with mouse recombinant FOLR1 (rMuFOLR1). The heterobiligand binds to both species' variants of FOLR1 with high affinity. This observation was expected given the high homology between the two variants (approximately 92%).

The conditions of series [4]: human, plasma, Plasma Stability (t 1/2).
Description: (§2) Plasma was thawed in a 37° C. water bath. Residual clots were removed via centrifugation at 4000 rpm for 5 minutes. The pH of the plasma was adjusted to 7.4 if required. Test articles were diluted to 100 μM by diluting a 1 mM working solution (in DMSO) with 45% methanol in water. To 98 μL of plasma was added 2 μL of the 100 μM solution, resulting in 2 μM final concentration of the test article. Samples were incubated at 37° C. in a water bath. At the indicated time points (0, 10, 30, 60, 120 minutes) 100 μL of 4% H3PO4 was added followed by 800 μL of stop solution (200 ng/mL tolbutamide and 200 ng/mL labetalol in 100% acetonitrile). The samples were centrifuged and the plasma protein-free supernatant (100 μL) was subjected to LC-MS/MS analysis.
For series [5] the following is noted: mouse, plasma, Plasma Stability (t 1/2).
Description: as §2

Sequence of human recombinant NEP (P08473 whole entry): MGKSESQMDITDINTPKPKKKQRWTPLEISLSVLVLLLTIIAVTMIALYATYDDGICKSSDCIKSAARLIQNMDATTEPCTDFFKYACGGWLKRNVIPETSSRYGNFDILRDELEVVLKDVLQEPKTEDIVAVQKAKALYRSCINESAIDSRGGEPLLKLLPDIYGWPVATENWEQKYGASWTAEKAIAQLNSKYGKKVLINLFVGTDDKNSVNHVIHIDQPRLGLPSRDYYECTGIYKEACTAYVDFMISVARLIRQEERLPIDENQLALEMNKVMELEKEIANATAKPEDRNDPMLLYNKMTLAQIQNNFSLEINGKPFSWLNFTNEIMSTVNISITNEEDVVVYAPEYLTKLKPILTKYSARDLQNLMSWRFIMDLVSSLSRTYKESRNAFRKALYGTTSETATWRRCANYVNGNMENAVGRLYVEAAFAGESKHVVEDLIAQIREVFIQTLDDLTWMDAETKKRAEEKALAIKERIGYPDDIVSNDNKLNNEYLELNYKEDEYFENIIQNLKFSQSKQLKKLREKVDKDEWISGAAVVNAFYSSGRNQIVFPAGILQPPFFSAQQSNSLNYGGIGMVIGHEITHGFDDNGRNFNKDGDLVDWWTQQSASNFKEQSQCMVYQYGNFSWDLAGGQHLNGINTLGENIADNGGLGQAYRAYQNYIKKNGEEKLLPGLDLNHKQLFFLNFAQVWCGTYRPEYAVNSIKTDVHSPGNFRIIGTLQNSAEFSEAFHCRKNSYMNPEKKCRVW
T1 sequence (P15328 25-234): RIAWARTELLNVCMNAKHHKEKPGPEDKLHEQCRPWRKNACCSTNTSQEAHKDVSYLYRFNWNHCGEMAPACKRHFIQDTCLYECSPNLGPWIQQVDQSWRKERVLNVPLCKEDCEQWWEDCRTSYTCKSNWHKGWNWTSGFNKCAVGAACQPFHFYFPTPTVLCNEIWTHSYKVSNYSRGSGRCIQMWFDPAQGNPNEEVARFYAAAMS
Sequence of mouse recombinant FOLR1 (rMuFOLR1) (P35846 25-232): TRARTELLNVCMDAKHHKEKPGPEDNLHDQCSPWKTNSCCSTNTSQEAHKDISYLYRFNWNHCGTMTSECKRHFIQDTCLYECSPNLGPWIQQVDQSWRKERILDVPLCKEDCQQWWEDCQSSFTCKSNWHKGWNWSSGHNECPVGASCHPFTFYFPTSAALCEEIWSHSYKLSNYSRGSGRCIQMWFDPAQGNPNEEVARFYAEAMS

For `C[C@H](O)[C@H]1NC(=O)[C@@H](Cc2c[nH]cn2)NC(=O)[C@@H](CO)NC(=O)[C@@H](Cc2c[nH]cn2)NC(=O)[C@@H](NC(=O)CC[C@H](NC(=O)c2ccc(NCc3cnc4nc(N)[nH]c(=O)c4n3)cc2)C(=O)O)Cc2cn(nn2)CCCC[C@@H](C(=O)N[C@@H](CCCCNC(=O)CCCc2ccc(I)cc2)C(=O)NCC(=O)N[C@@H](Cc2ccccc2)C(=O)N[C@@H](CCCCNC(=O)CN2CCN(CC(=O)O)CCN(CC(=O)O)CCN(CC(=O)O)CC2)C(=O)O)NC(=O)[C@@H](C)NC1=O` [compound #1307, Fol-hshta-Lys(4-IPBA)-Gly-Phe-Lys(DOTA)] ({Pteroyl-γGlu}-[Pra][dH][dS][dH][dT][dA][Lys(N3)]K(Butanoyl(4-(4-I-phenyl)))GFK(DOTA)-OH; triazole 1-7), the figures for the recovery in series [1] and in series [2] were 84.4% and 87.7%, respectively. Further, the “Plasma % Bound” value in the series on human plasma proteins is reported as “Hu: 99.50%”; in the series with mouse plasma proteins, “Mu: 99.60%”. For the same compound, in the series with human recombinant NEP, the “in vitro Assay Data (NEP assay)” value is on record as “Cleavage of -G-F-K-”.

With `C[C@H](O)[C@H]1NC(=O)[C@@H](Cc2c[nH]cn2)NC(=O)[C@@H](CO)NC(=O)[C@@H](Cc2c[nH]cn2)NC(=O)[C@@H](NC(=O)COCCOCCOCCNC(=O)CCCC[C@@H]2SC[C@@H]3NC(=O)N[C@@H]32)Cc2cn(nn2)CCCC[C@@H](C(N)=O)NC(=O)[C@@H](C)NC1=O` [hshta] ({Biotin-AEEEA}-[Pra][dH][dS][dH][dT][dA][Lys(N3)]-NH2; triazole 1-7), the pEC50 at FOLR1 (Human FOLR1, read-out: Ec50) is 5.47; at FOLR1 (read-out: EC50 (ELISA, FOLR1)) it was 5.41; in series [3], 5.68.

For the compound `Cc1ccc(CCCC(=O)NCCCC[C@H](NC(=O)COCCOCCOCCNC(=O)[C@@H]2CCCCn3cc(nn3)C[C@H](NC(=O)CC[C@H](NC(=O)c3ccc(NCc4cnc5nc(N)[nH]c(=O)c5n4)cc3)C(=O)O)C(=O)N[C@H](Cc3c[nH]cn3)C(=O)N[C@H](CO)C(=O)N[C@H](Cc3c[nH]cn3)C(=O)N[C@H]([C@H](C)O)C(=O)N[C@H](C)C(=O)N2)C(=O)N[C@@H](CCCCNC(=O)CN2CCN(CC(=O)O)CCN(CC(=O)O)CCN(CC(=O)O)CC2)C(N)=O)cc1` [compound #2809, Fol-hshta-PEG3-Lys(4-MPBA)-Lys(DOTA)] ({Pteroyl-γGlu}-[Pra][dH][dS][dH][dT][dA][Lys(N3)][AEEEA]K(Butanoyl(4-(4-MePh)))K(DOTA)-NH2; triazole 1-7), the recovery is 85.8% in [1] and 108% in series [2]. Besides, the fraction unbound in series [1] (human, plasma) came to 0.167; in series [2] (mouse, plasma) it was 0.0791. Further, in the series with human recombinant NEP, the “NEP-mediated cleavage (site / susceptibility)” value is listed as “unchanged”. In the series with human recombinant NEP, the “in vitro Assay Data (NEP assay)” value was “resistant to NEP”. Besides, the half-life in series [4] and in [5] was above 289 min in each case.
